Laboratory results as given in paper PMC4031048, “Six Homeoproteins and a linc-RNA at the Fast MYH Locus Lock Fast Myofiber Terminal Phenotype”.

T1: Six1 (Mus musculus, UniProt Q62231 1-284)
T1 sequence: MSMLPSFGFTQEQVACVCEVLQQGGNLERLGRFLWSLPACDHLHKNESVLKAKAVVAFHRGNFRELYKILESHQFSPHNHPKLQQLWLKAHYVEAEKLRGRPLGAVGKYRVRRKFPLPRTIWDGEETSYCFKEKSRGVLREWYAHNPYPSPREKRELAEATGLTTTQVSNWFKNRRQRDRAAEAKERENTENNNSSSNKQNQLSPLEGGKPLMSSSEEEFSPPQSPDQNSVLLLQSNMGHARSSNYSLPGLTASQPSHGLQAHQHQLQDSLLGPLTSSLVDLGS

B1: Enh1 (dsDNA)
DNA 1: CTCTTGGGTAACTGGAGCCCCTC
DNA 2: GAGGGGCTCCAGTTACCCAAGAG
B2: Enh2 (dsDNA)
DNA 1: TCATAAGGAAATCTAAGTCAACC
DNA 2: GGTTGACTTAGATTTCCTTATGA
B3: Enh3 (dsDNA)
DNA 1: TGTAAGAGAAACTGAAATAAAAT
DNA 2: ATTTTATTTCAGTTTCTCTTACA
B4: Enh4 (dsDNA)
DNA 1: GGGGTAAGAAATCTGACGACAGG
DNA 2: CCTGTCGTCAGATTTCTTACCCC
B5: Enh6 (dsDNA)
DNA 1: CGTCAAGGAAACCTTATTCCATC
DNA 2: GATGGAATAAGGTTTCCTTGACG

What follows are binders tested against T1, Six1 (assay: competition EMSA; 10x and 100x vs labeled Myogenin MEF3; EMSA as previously described (ref 38); buffer, salt, pH and temperature not given). Conditions: protein: ivt; blunt.

Binding result, binds:
B1
B2
B3
B4
B5
